In JP2020103280A:

Key:
[1] = molecular target: ヒトFcγRIIIaを固定化した担体(分離剤)を詰めたカラム(FcR9_Fカラム、WO2018/150973号の実施例5に記載) (human); experiment: FcγRIIIa affinity chromatography (FcR9_F column), area share of the strongly binding peak 3; antibody from bioreactor batch culture in BalanCD CHO Growth A with 5 µM Mn, day 10
[2] = molecular target: ヒトFcγRIIIaを固定化した担体(分離剤)を詰めたカラム(FcR9_Fカラム、WO2018/150973号の実施例5に記載) (human); experiment: FcγRIIIa affinity chromatography (FcR9_F column), area share of the strongly binding peak 3; antibody from bioreactor batch culture in EX-CELL Advanced CHO Fed-batch Medium with 10 µM Mn, day 10
[3] = molecular target: ヒトFcγRIIIaを固定化した担体(分離剤)を詰めたカラム(FcR9_Fカラム、WO2018/150973号の実施例5に記載) (human); experiment: FcγRIIIa affinity chromatography (FcR9_F column), area share of the strongly binding peak 3; antibody from bioreactor batch culture in EX-CELL Advanced CHO Fed-batch Medium with 5 µM Mn, day 10
[4] = molecular target: ヒトFcγRIIIaを固定化した担体(分離剤)を詰めたカラム(FcR9_Fカラム、WO2018/150973号の実施例5に記載) (human); experiment: FcγRIIIa affinity chromatography (FcR9_F column), area share of the strongly binding peak 3; antibody from bioreactor batch culture in BalanCD CHO Growth A without Mn, day 9
[5] = molecular target: ヒトFcγRIIIaを固定化した担体(分離剤)を詰めたカラム(FcR9_Fカラム、WO2018/150973号の実施例5に記載) (human); experiment: FcγRIIIa affinity chromatography (FcR9_F column), area share of the strongly binding peak 3; antibody from bioreactor batch culture in EX-CELL Advanced CHO Fed-batch Medium with 1 µM Mn, day 10
[6] = molecular target: ヒトFcγRIIIaを固定化した担体(分離剤)を詰めたカラム(FcR9_Fカラム、WO2018/150973号の実施例5に記載) (human); experiment: FcγRIIIa affinity chromatography (FcR9_F column), area share of the strongly binding peak 3; antibody from bioreactor batch culture in EX-CELL Advanced CHO Fed-batch Medium without Mn, day 10

B1: 抗インターロイキン6レセプター(IL−6R)抗体 (antibody, V domains shown)
VH: QVQLQESGPGLVRPSQTLSLTCTVSGYSITSDHAWSWVRQPPGRGLEWIGYISYSGITTYNPSLKSRVTMLRDTSKNQFSLRLSSVTAADTAVYYCARSLARTTAMDYWGQGSLVTVSS
VL: DIQMTQSPSSLSASVGDRVTITCRASQDISSYLNWYQQKPGKAPKLLIYYTSRLHSGVPSRFSGSGSGTDFTFTISSLQPEDIATYYCQQGNTLPYTFGQGTKVEIK
FcR9_Fカラムとの結合力が強いピーク(ピーク3)の割合 [1]: 34.7% | FcR9_Fカラムとの結合力が強いピーク(ピーク3)の割合 [2]: 41% | FcR9_Fカラムとの結合力が強いピーク(ピーク3)の割合 [3]: 38.4% | FcR9_Fカラムとの結合力が強いピーク(ピーク3)の割合 [4]: 27.9% | FcR9_Fカラムとの結合力が強いピーク(ピーク3)の割合 [5]: 36.5% | FcR9_Fカラムとの結合力が強いピーク(ピーク3)の割合 [6]: 35.9%
